Results on two molecules are retold here after publication PMC3171469, “Multiple ETS Family Proteins Regulate PF4 Gene Expression by Binding to the Same ETS Binding Site”.

The target in series [1] is T1, FLI-1 (UniProt Q01543 1-452).
T1 sequence: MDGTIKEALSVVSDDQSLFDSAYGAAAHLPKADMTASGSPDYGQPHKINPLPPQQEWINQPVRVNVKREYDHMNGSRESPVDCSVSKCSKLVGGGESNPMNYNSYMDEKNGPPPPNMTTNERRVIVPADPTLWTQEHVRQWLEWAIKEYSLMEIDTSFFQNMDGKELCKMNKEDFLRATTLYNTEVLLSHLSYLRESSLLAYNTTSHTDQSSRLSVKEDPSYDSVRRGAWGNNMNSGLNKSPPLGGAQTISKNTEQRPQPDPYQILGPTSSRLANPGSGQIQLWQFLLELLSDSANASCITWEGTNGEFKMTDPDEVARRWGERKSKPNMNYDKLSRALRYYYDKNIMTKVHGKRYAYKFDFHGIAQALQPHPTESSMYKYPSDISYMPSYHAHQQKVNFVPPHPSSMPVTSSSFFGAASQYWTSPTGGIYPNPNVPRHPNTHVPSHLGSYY
As to the kind of experiment: EMSA; 2 mM HEPES-NaOH pH 7.9, 5 mM KCl, 2% glycerol, 0.01 mM EDTA, 0.25 mM DTT, 0.1 mg/ml BSA, 5 ng/ul poly dI-dC, 50 fmol probe, 40 min at 4 C; 4% native gel, 0.5x TBE. The settings on record: protein: ivt; label: 32P as probe; blunt. A general note: Mobility shift assays separate free from complexed probe on a gel.

In series [2] the target is T2, ELF-1 (UniProt P32519 1-619). The series is described as above. The settings on record: protein: ivt; label: 32P as probe; blunt.
T2 sequence (P32519 whole entry): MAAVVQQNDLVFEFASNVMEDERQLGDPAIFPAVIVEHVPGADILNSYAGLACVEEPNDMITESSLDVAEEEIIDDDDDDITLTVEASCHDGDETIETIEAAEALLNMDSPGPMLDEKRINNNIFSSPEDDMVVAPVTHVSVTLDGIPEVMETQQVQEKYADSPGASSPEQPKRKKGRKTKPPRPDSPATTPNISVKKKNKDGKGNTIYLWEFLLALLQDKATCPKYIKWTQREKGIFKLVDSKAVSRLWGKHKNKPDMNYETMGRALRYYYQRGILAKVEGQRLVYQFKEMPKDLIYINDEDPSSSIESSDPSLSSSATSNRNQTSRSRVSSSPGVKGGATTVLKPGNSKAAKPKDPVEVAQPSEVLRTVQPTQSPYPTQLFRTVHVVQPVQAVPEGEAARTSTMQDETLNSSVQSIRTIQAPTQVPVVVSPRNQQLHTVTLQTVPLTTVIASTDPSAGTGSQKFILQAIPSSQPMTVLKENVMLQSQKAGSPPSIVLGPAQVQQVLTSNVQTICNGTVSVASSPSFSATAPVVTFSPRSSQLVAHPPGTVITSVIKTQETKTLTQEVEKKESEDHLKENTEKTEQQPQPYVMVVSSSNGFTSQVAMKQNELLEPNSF
The target in series [3] is T2, ELF-1. As to the kind of experiment: EMSA; anti-ELF-1 inhibits, weak supershift; 2 mM HEPES-NaOH pH 7.9, 5 mM KCl, 2% glycerol, 0.01 mM EDTA, 0.25 mM DTT, 0.1 mg/ml BSA, 5 ng/ul poly dI-dC, 50 fmol probe, 40 min at 4 C; 4% native gel, 0.5x TBE. The conditions noted are these: protein: ivt; label: 32P; blunt.
Series [4] addresses T1, FLI-1. As to the kind of experiment: EMSA; supershift with anti-FLI-1; 2 mM HEPES-NaOH pH 7.9, 5 mM KCl, 2% glycerol, 0.01 mM EDTA, 0.25 mM DTT, 0.1 mg/ml BSA, 5 ng/ul poly dI-dC, 50 fmol probe, 40 min at 4 C; 4% native gel, 0.5x TBE. The settings on record: protein: ivt; label: 32P; blunt.

B1: -51 ETSmut (dsDNA)
DNA 1: CCCGGGTCGGTGGACTGGGCTG
DNA 2: CAGCCCAGTCCACCGACCCGGG
As for B1, the binding result with FLI-1 [1] and with ELF-1 [2] was “no binding” throughout.

B2: -51 ETS (dsDNA)
DNA 1: CCCGGGTTTCCGGACTGGGCTG
DNA 2: CAGCCCAGTCCGGAAACCCGGG
Turning to B2, the binding result in the series with ELF-1 [3] and with FLI-1 [4] was “binds” throughout.
